This data set deals with the molecule itself. Kind of data set: SAXS; SEC-coupled SAXS (SWING beamline, SOLEIL); ~25 mg/mL in Tris-HCl 40 mM pH 7.6, 8% glycerol, online Agilent BioSEC-3 300 Å column; Mw from SAXSMoW, volume from DAMMIF; NarGH heterodimers into a trimer.

B1: holoNarGH, Moco-loaded soluble catalytic NarGH complex of nitrate reductase A (complex, E. coli)
chain 1: MSKFLDRFRYFKQKGETFADGHGQLLNTNRDWEDGYRQRWQHDKIVRSTHGVNCTGSCSWKIYVKNGLVTWETQQTDYPRTRPDLPNHEPRGCPRGASYSWYLYSANRLKYPMMRKRLMKMWREAKALHSDPVEAWASIIEDADKAKSFKQARGRGGFVRSSWQEVNELIAASNVYTIKNYGPDRVAGFSPIPAMSMVSYASGARYLSLIGGTCLSFYDWYCDLPPASPQTWGEQTDVPESADWYNSSYIIAWGSNVPQTRTPDAHFFTEVRYKGTKTVAVTPDYAEIAKLCDLWLAPKQGTDAAMALAMGHVMLREFHLDNPSQYFTDYVRRYTDMPMLVMLEERDGYYAAGRMLRAADLVDALGQENNPEWKTVAFNTNGEMVAPNGSIGFRWGEKGKWNLEQRDGKTGEETELQLSLLGSQDEIAEVGFPYFGGDGTEHFNKVELENVLLHKLPVKRLQLADGSTALVTTVYDLTLANYGLERGLNDVNCATSYDDVKAYTPAWAEQITGVSRSQIIRIAREFADNADKTHGRSMIIVGAGLNHWYHLDMNYRGLINMLIFCGCVGQSGGGWAHYVGQEKLRPQTGWQPLAFALDWQRPARHMNSTSYFYNHSSQWRYETVTAEELLSPMADKSRYTGHLIDFNVRAERMGWLPSAPQLGTNPLTIAGEAEKAGMNPVDYTVKSLKEGSIRFAAEQPENGKNHPRNLFIWRSNLLGSSGKGHEFMLKYLLGTEHGIQGKDLGQQGGVKPEEVDWQDNGLEGKLDLVVTLDFRLSSTCLYSDIILPTATWYEKDDMNTSDMHPFIHPLSAAVDPAWEAKSDWEIYKAIAKKFSEVCVGHLGKETDIVTLPIQHDSAAELAQPLDVKDWKKGECDLIPGKTAPHIMVVERDYPATYERFTSIGPLMEKIGNGGKGIAWNTQSEMDLLRKLNYTKAEGPAKGQPMLNTAIDAAEMILTLAPETNGQVAVKAWAALSEFTGRDHTHLALNKEDEKIRFRDIQAQPRKIISSPTWSGLEDEHVSYNAGYTNVHELIPWRTLSGRQQLYQDHQWMRDFGESLLVYRPPIDTRSVKEVIGQKSNGNQEKALNFLTPHQKWGIHSTYSDNLLMLTLGRGGPVVWLSEADAKDLGIADNDWIEVFNSNGALTARAVVSQRVPAGMTMMYHAQERIVNLPGSEITQQRGGIHNSVTRITPKPTHMIGGYAHLAYGFNYYGTVGSNRDEFVVVRKMKNIDWLDGEGNDQVQESVK
chain 2: MKIRSQVGMVLNLDKCIGCHTCSVTCKNVWTSREGVEYAWFNNVETKPGQGFPTDWENQEKYKGGWIRKINGKLQPRMGNRAMLLGKIFANPHLPGIDDYYEPFDFDYQNLHTAPEGSKSQPIARPRSLITGERMAKIEKGPNWEDDLGGEFDKLAKDKNFDNIQKAMYSQFENTFMMYLPRLCEHCLNPACVATCPSGAIYKREEDGIVLIDQDKCRGWRMCITGCPYKKIYFNWKSGKSEKCIFCYPRIEAGQPTVCSETCVGRIRYLGVLLYDADAIERAASTENEKDLYQRQLDVFLDPNDPKVIEQAIKDGIPLSVIEAAQQSPVYKMAMEWKLALPLHPEYRTLPMVWYVPPLSPIQSAADAGELGSNGILPDVESLRIPVQYLANLLTAGDTKPVLRALKRMLAMRHYKRAETVDGKVDTRALEEVGLTEAQAQEMYRYLAIANYEDRFVVPSSHRELAREAFPEKNGCGFTFGDGCHGSDTKFNLFNSRRIDAIDVTSKTEPHP
notes: NarG, nitrate-reducing catalytic subunit of respiratory nitrate reductase A, E. coli; carries Mo-bisPGD and the [4Fe-4S] cluster FS0; Printed residue numbers (Arg108, Glu794) follow the crystal structure 1q16; NarH, electron-transfer subunit of respiratory nitrate reductase A, E. coli; carries four Fe/S clusters (FS1-4); The unit written here is the NarGH heterodimer (~200 kDa), which is trimeric …
For orientation: stoichiometry N means the number of molecules, sites or subunits per partner or assembly. On to B1, for which the “stoichiometry N” value amounted to 3.

B2: NarG_(R108A)H_(His6) complex (complex, E. coli)
chain 1: MSKFLDRFRYFKQKGETFADGHGQLLNTNRDWEDGYRQRWQHDKIVRSTHGVNCTGSCSWKIYVKNGLVTWETQQTDYPRTRPDLPNHEPRGCPRGASYSWYLYSANALKYPMMRKRLMKMWREAKALHSDPVEAWASIIEDADKAKSFKQARGRGGFVRSSWQEVNELIAASNVYTIKNYGPDRVAGFSPIPAMSMVSYASGARYLSLIGGTCLSFYDWYCDLPPASPQTWGEQTDVPESADWYNSSYIIAWGSNVPQTRTPDAHFFTEVRYKGTKTVAVTPDYAEIAKLCDLWLAPKQGTDAAMALAMGHVMLREFHLDNPSQYFTDYVRRYTDMPMLVMLEERDGYYAAGRMLRAADLVDALGQENNPEWKTVAFNTNGEMVAPNGSIGFRWGEKGKWNLEQRDGKTGEETELQLSLLGSQDEIAEVGFPYFGGDGTEHFNKVELENVLLHKLPVKRLQLADGSTALVTTVYDLTLANYGLERGLNDVNCATSYDDVKAYTPAWAEQITGVSRSQIIRIAREFADNADKTHGRSMIIVGAGLNHWYHLDMNYRGLINMLIFCGCVGQSGGGWAHYVGQEKLRPQTGWQPLAFALDWQRPARHMNSTSYFYNHSSQWRYETVTAEELLSPMADKSRYTGHLIDFNVRAERMGWLPSAPQLGTNPLTIAGEAEKAGMNPVDYTVKSLKEGSIRFAAEQPENGKNHPRNLFIWRSNLLGSSGKGHEFMLKYLLGTEHGIQGKDLGQQGGVKPEEVDWQDNGLEGKLDLVVTLDFRLSSTCLYSDIILPTATWYEKDDMNTSDMHPFIHPLSAAVDPAWEAKSDWEIYKAIAKKFSEVCVGHLGKETDIVTLPIQHDSAAELAQPLDVKDWKKGECDLIPGKTAPHIMVVERDYPATYERFTSIGPLMEKIGNGGKGIAWNTQSEMDLLRKLNYTKAEGPAKGQPMLNTAIDAAEMILTLAPETNGQVAVKAWAALSEFTGRDHTHLALNKEDEKIRFRDIQAQPRKIISSPTWSGLEDEHVSYNAGYTNVHELIPWRTLSGRQQLYQDHQWMRDFGESLLVYRPPIDTRSVKEVIGQKSNGNQEKALNFLTPHQKWGIHSTYSDNLLMLTLGRGGPVVWLSEADAKDLGIADNDWIEVFNSNGALTARAVVSQRVPAGMTMMYHAQERIVNLPGSEITQQRGGIHNSVTRITPKPTHMIGGYAHLAYGFNYYGTVGSNRDEFVVVRKMKNIDWLDGEGNDQVQESVK
chain 2: MKIRSQVGMVLNLDKCIGCHTCSVTCKNVWTSREGVEYAWFNNVETKPGQGFPTDWENQEKYKGGWIRKINGKLQPRMGNRAMLLGKIFANPHLPGIDDYYEPFDFDYQNLHTAPEGSKSQPIARPRSLITGERMAKIEKGPNWEDDLGGEFDKLAKDKNFDNIQKAMYSQFENTFMMYLPRLCEHCLNPACVATCPSGAIYKREEDGIVLIDQDKCRGWRMCITGCPYKKIYFNWKSGKSEKCIFCYPRIEAGQPTVCSETCVGRIRYLGVLLYDADAIERAASTENEKDLYQRQLDVFLDPNDPKVIEQAIKDGIPLSVIEAAQQSPVYKMAMEWKLALPLHPEYRTLPMVWYVPPLSPIQSAADAGELGSNGILPDVESLRIPVQYLANLLTAGDTKPVLRALKRMLAMRHYKRAETVDGKVDTRALEEVGLTEAQAQEMYRYLAIANYEDRFVVPSSHRELAREAFPEKNGCGFTFGDGCHGSDTKFNLFNSRRIDAIDVTSKTEPHP
notes: NarG, catalytic subunit of respiratory nitrate reductase A, E. coli, with R108A; NarH, electron-transfer subunit of respiratory nitrate reductase A, E. coli; The unit is the NarGH heterodimer; His6 put on NarH from the plasmid name; also called R108A NarGH; NarGH variant; source: E. coli with pNarG_(R108A)H_(His6)J, purified
As for B2, the binding result is “binds”.

B3: apoNarGH, cofactor-less NarGH complex produced in absence of NarJ (complex, E. coli)
chain 1: MSKFLDRFRYFKQKGETFADGHGQLLNTNRDWEDGYRQRWQHDKIVRSTHGVNCTGSCSWKIYVKNGLVTWETQQTDYPRTRPDLPNHEPRGCPRGASYSWYLYSANRLKYPMMRKRLMKMWREAKALHSDPVEAWASIIEDADKAKSFKQARGRGGFVRSSWQEVNELIAASNVYTIKNYGPDRVAGFSPIPAMSMVSYASGARYLSLIGGTCLSFYDWYCDLPPASPQTWGEQTDVPESADWYNSSYIIAWGSNVPQTRTPDAHFFTEVRYKGTKTVAVTPDYAEIAKLCDLWLAPKQGTDAAMALAMGHVMLREFHLDNPSQYFTDYVRRYTDMPMLVMLEERDGYYAAGRMLRAADLVDALGQENNPEWKTVAFNTNGEMVAPNGSIGFRWGEKGKWNLEQRDGKTGEETELQLSLLGSQDEIAEVGFPYFGGDGTEHFNKVELENVLLHKLPVKRLQLADGSTALVTTVYDLTLANYGLERGLNDVNCATSYDDVKAYTPAWAEQITGVSRSQIIRIAREFADNADKTHGRSMIIVGAGLNHWYHLDMNYRGLINMLIFCGCVGQSGGGWAHYVGQEKLRPQTGWQPLAFALDWQRPARHMNSTSYFYNHSSQWRYETVTAEELLSPMADKSRYTGHLIDFNVRAERMGWLPSAPQLGTNPLTIAGEAEKAGMNPVDYTVKSLKEGSIRFAAEQPENGKNHPRNLFIWRSNLLGSSGKGHEFMLKYLLGTEHGIQGKDLGQQGGVKPEEVDWQDNGLEGKLDLVVTLDFRLSSTCLYSDIILPTATWYEKDDMNTSDMHPFIHPLSAAVDPAWEAKSDWEIYKAIAKKFSEVCVGHLGKETDIVTLPIQHDSAAELAQPLDVKDWKKGECDLIPGKTAPHIMVVERDYPATYERFTSIGPLMEKIGNGGKGIAWNTQSEMDLLRKLNYTKAEGPAKGQPMLNTAIDAAEMILTLAPETNGQVAVKAWAALSEFTGRDHTHLALNKEDEKIRFRDIQAQPRKIISSPTWSGLEDEHVSYNAGYTNVHELIPWRTLSGRQQLYQDHQWMRDFGESLLVYRPPIDTRSVKEVIGQKSNGNQEKALNFLTPHQKWGIHSTYSDNLLMLTLGRGGPVVWLSEADAKDLGIADNDWIEVFNSNGALTARAVVSQRVPAGMTMMYHAQERIVNLPGSEITQQRGGIHNSVTRITPKPTHMIGGYAHLAYGFNYYGTVGSNRDEFVVVRKMKNIDWLDGEGNDQVQESVK
chain 2: MKIRSQVGMVLNLDKCIGCHTCSVTCKNVWTSREGVEYAWFNNVETKPGQGFPTDWENQEKYKGGWIRKINGKLQPRMGNRAMLLGKIFANPHLPGIDDYYEPFDFDYQNLHTAPEGSKSQPIARPRSLITGERMAKIEKGPNWEDDLGGEFDKLAKDKNFDNIQKAMYSQFENTFMMYLPRLCEHCLNPACVATCPSGAIYKREEDGIVLIDQDKCRGWRMCITGCPYKKIYFNWKSGKSEKCIFCYPRIEAGQPTVCSETCVGRIRYLGVLLYDADAIERAASTENEKDLYQRQLDVFLDPNDPKVIEQAIKDGIPLSVIEAAQQSPVYKMAMEWKLALPLHPEYRTLPMVWYVPPLSPIQSAADAGELGSNGILPDVESLRIPVQYLANLLTAGDTKPVLRALKRMLAMRHYKRAETVDGKVDTRALEEVGLTEAQAQEMYRYLAIANYEDRFVVPSSHRELAREAFPEKNGCGFTFGDGCHGSDTKFNLFNSRRIDAIDVTSKTEPHP
notes: NarG, nitrate-reducing catalytic subunit of respiratory nitrate reductase A, E. coli; here devoid of FS0 and Moco; Printed residue numbers follow the crystal structure 1q16; NarH, electron-transfer subunit of respiratory nitrate reductase A, E. coli; The unit is the NarGH heterodimer; His6 put on NarH from the plasmid name; also called Moco-less His-tagged NarGH complex
In the case of B3, the “stoichiometry N” value amounted to 3.

These data come from PMC5123574, “Redox cofactors insertion in prokaryotic molybdoenzymes occurs via a conserved folding mechanism” (Scientific Reports, 2016).
